Reference: US20200247891A1 (University of California, published 2020)

Biological target: αvβ8 integrin on β8-transfected SW480 cells and β8-transfected SNB-19 cells (UniProt P26012 43-769; P06756 31-1048)
Test: cell-based or functional assay

Sequence of αvβ8 integrin on β8-transfected SW480 cells and β8-transfected SNB-19 cells (P26012 43-769, chain 1 of 2): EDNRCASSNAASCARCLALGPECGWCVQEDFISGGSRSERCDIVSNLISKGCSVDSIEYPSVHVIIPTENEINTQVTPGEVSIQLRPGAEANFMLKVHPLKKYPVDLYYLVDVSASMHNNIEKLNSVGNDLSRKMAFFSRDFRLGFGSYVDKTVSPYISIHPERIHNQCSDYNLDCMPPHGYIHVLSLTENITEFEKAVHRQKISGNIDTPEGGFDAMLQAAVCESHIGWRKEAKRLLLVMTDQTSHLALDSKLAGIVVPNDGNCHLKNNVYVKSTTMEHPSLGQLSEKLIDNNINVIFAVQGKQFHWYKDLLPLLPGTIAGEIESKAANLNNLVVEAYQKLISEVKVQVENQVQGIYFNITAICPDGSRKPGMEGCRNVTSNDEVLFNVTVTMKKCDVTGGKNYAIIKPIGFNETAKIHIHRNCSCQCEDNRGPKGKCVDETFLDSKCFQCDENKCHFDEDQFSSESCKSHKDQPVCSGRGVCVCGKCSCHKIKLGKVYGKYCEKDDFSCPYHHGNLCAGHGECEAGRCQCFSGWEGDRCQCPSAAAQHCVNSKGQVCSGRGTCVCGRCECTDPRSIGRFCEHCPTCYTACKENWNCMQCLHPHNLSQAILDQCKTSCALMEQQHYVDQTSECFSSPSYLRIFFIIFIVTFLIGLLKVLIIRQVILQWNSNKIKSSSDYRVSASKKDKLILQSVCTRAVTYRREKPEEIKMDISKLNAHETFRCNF
Sequence of αvβ8 integrin on β8-transfected SW480 cells and β8-transfected SNB-19 cells (P06756 31-1048, chain 2 of 2): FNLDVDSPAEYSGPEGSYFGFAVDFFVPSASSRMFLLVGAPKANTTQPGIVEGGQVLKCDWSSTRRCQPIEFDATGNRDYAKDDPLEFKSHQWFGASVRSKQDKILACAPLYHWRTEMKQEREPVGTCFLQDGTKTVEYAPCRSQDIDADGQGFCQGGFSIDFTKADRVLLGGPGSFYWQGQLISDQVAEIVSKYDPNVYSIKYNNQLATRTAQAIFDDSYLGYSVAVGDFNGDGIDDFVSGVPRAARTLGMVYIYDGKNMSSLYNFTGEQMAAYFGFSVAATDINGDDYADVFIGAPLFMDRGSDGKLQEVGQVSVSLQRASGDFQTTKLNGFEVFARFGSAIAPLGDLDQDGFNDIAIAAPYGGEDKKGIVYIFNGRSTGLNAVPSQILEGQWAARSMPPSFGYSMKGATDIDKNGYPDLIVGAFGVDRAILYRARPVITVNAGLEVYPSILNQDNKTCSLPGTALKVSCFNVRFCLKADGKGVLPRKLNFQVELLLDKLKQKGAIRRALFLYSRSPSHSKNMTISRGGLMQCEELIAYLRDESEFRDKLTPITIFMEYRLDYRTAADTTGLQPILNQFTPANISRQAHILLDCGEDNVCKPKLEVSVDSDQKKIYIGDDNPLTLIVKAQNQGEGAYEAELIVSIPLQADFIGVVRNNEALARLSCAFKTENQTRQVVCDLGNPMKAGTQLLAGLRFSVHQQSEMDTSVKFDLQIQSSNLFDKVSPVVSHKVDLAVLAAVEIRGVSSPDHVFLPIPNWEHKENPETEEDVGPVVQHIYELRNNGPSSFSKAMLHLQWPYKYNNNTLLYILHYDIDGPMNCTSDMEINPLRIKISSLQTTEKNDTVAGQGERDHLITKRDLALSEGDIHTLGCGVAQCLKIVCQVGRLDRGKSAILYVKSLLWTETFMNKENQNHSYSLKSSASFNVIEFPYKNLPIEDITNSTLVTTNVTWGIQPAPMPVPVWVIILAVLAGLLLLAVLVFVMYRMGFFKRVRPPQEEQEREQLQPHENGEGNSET

IC50 for inhibiting TGFβ activation: < 5 nM
B1: ADWA-11 (antibody, V domains shown)
VH: EVQLQQSGAELVRPGAFVKLSCKASGFNIKDYYMNWVLQRPEQGLEWIGWIDPDNGNTIYDPKFQGKASITADTSSNTAYLQLSSLTSEDTAVYYCARRLLMDYWGQGTSVTVSS
VL: DIVMTQAAPSVPVTPGESVSISCRSTKSLLHFNGNTYLFWFLQRPGQSPQRLIYYMSNLASGVPDRFSGRGSGTDFTLRISRVEAEDVGVYYCMQSLEYPFTFGTGTKLEIK
